Values of other authors, collected in article PMC10027511, “Disordered proteins mitigate the temperature dependence of site-specific binding free energies” (The Journal of Biological Chemistry, 2023).

Legend:
[1] = target: Sos site 4 peptide site 4 peptide (Drosophila melanogaster) (UniProt P26675); assay: 19F NMR lineshape analysis, 35 °C
[2] = target: Sos site 4 peptide site 4 peptide (Drosophila melanogaster) (UniProt P26675); assay: 19F NMR lineshape analysis, 15 °C
[3] = target: Sos site 4 peptide site 4 peptide (Drosophila melanogaster) (UniProt P26675); assay: 19F NMR lineshape analysis, 45 °C
[4] = target: Sos site 4 peptide site 4 peptide (Drosophila melanogaster) (UniProt P26675); assay: 19F NMR lineshape analysis, 25 °C
[5] = target: Sos site 4 peptide site 4 peptide (Drosophila melanogaster) (UniProt P26675); assay: 19F NMR lineshape analysis, 5 °C

Substance: Drk N-terminal SH3 domain N-terminal SH3 (from UniProt Q08012)
- Kd [1]: 110 µM
- Kd [2]: 40 µM
- Kd [3]: 210 µM
- Kd [4]: 60 µM
- Kd [5]: 20 µM
